Measurements as given in patent publication US10844127.

Experiments:
[1] = target: HER3 ECD R426A (human) (UniProt P21860); assay: FACS, HER3 ECD alanine mutants on cells
[2] = target: HER3 ECD F409A (human) (UniProt P21860); assay: FACS, HER3 ECD alanine mutants on cells
Sequence of HER3 ECD F409A (human) (P21860 20-643 F409A): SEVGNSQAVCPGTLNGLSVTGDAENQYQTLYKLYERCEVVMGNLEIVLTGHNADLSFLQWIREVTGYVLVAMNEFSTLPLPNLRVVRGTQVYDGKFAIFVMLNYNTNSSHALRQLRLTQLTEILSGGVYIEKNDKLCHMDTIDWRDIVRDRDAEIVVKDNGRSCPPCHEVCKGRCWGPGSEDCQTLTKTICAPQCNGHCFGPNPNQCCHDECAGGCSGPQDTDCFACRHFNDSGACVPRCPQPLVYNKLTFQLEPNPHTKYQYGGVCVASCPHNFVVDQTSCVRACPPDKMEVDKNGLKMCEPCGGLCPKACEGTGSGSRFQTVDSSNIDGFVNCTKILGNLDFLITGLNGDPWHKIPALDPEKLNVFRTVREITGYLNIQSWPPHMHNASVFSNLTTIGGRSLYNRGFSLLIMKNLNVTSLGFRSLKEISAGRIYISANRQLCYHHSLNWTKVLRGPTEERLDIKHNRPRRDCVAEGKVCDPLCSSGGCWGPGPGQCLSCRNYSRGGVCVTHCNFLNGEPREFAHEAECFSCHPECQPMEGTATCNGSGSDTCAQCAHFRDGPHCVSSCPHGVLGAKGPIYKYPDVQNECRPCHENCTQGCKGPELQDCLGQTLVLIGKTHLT

Sequence of HER3 ECD R426A (human) (P21860 20-643 R426A): as the sequence (P21860 20-643 F409A) above, with A390F, R407A counted along it

Control mAb binding % of wt binding (% of wt binding) [1]: 93.1
Control mAb binding % of wt binding (% of wt binding) [2]: 79.6
Substance: control mAb 66223 (antibody)
